Source: patent US20250197490A1 (HBM ALPHA THERAPEUTICS, published 2025)
Several values for one entry are separate records, joined by “and”; a condition that tells them apart may be missing. Identical values can stand only once.

T1: corticotropin-releasing hormone (CRH) peptide (human and mouse, UniProt P01143 145-185 (rat entry), not fully specified)
T1 peptide: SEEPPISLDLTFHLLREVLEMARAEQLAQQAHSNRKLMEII

B1: PR302341 (antibody, human IgG1, kappa, V domains shown)
VH: EVQLQQSGPELVKPGASVKMSCKASGYTFTDYFMKWVKQSHGESLEWIGVINPNNGDIFYNQKFKGKATLTVDKSSSTAFMQLNSLTSEDSAVYSCARGTDRALFAYWGQGTLVAVSA
VL: DVLMTQTPLSLPVSLGDQASISCRSGQSIVHSDGNTYLEWYLQRPGQSPRLLIYKVSNRFSGVPDRFSGSGSGTDFTLKISRVGAEDLGIYYCFQGSHIPWTFGGGTKLEVKR
B2: PR302341-14 (antibody, human IgG1, kappa, V domains shown)
VH: QVQLVQSGAEVKKPGASVKVSCKASGYTFTDYFMKWVRQAPGQGLEWMGVINPNNGDIFYNQKFKGRVTMTVDKSTSTAYMELSSLRSEDTAVYYCARGTDRALFAYWGQGTLVTVSS
VL: DVLMTQTPLSLPVSLGDQASISCRSGQSIVHSDGNTYLEWYLQRPGQSPRLLIYKVSNRFSGVPDRFSGSGSGTDFTLKISRVGAEDLGIYYCFQGSHIPWTFGGGTKLEVKR
B3: PR302341-5 (antibody, human IgG1, kappa, V domains shown)
VH: EVQLQQSGPELVKPGASVKMSCKASGYTFTDYFMKWVKQSHGESLEWIGVINPNNGDIFYNQKFKGKATLTVDKSSSTAFMQLNSLTSEDSAVYSCARGTDRALFAYWGQGTLVAVSA
VL: DIVMTQTPLSLSVTPGQPASISCRSGQSIVHSDGNTYLEWYLQKPGQSPQLLIYKVSNRFSGVPDRFSGSGSGTDFTLKISRVEAEDVGVYYCFQGSHIPWTFGGGTKVEIKR
B4: PR302341-19 (antibody, human IgG1, kappa, V domains shown)
VH: QVQLVQSGAEVKKPGASVKVSCKASGYTFTDYFMKWVRQAPGQGLEWMGVINPNNGDIFYNQKFKGRVTMTRDTSTSTVYMELSSLRSEDTAVYYCARGTDRALFAYWGQGTLVTVSS
VL: DVVMTQSPLSLPVTLGQPASISCRSGQSIVHSDGNTYLEWYQQRPGQSPRLLIYKVSNRFSGVPDRFSGSGSGTDFTLKISRVEAEDLGVYYCFQGSHIPWTFGGGTKVEIKR
B5: PR302341-6 (antibody, human IgG1, kappa, V domains shown)
VH: EVQLQQSGPELVKPGASVKMSCKASGYTFTDYFMKWVKQSHGESLEWIGVINPNNGDIFYNQKFKGKATLTVDKSSSTAFMQLNSLTSEDSAVYSCARGTDRALFAYWGQGTLVAVSA
VL: DVVMTQTPLSLSVTPGQPASISCRSGQSIVHSDGNTYLEWYLQKPGQSPQLLIYKVSNRFSGVPDRFSGSGSGTDFTLKISRVEAEDLGVYYCFQGSHIPWTFGGGTKVEIKR
B6: PR302341-8 (antibody, human IgG1, kappa, V domains shown)
VH: QVQLVQSGAEVKKPGASVKVSCKASGYTFTDYFMKWVRQAPGQGLEWMGVINPNNGDIFYNQKFKGRVTMTVDKSTSTAYMELSSLRSEDTAVYYCARGTDRALFAYWGQGTLVTVSS
VL: DVVMTQSPLSLPVTLGQPASISCRSGQSIVHSDGNTYLEWYQQRPGQSPRLLIYKVSNRFSGVPDRFSGSGSGTDFTLKISRVEAEDLGVYYCFQGSHIPWTFGGGTKVEIKR
B7: PR302341-3 (antibody, human IgG1, kappa, V domains shown)
VH: EVQLQQSGPELVKPGASVKMSCKASGYTFTDYFMKWVKQSHGESLEWIGVINPNNGDIFYNQKFKGKATLTVDKSSSTAFMQLNSLTSEDSAVYSCARGTDRALFAYWGQGTLVAVSA
VL: DIVMTQTPLSSPVTLGQPASISCRSGQSIVHSDGNTYLEWLQQRPGQPPRLLIYKVSNRFSGVPDRFSGSGAGTDFTLKISRVEAEDVGVYYCFQGSHIPWTFGGGTKVEIKR
B8: PR302341-1 (antibody, human IgG1, kappa, V domains shown)
VH: EVQLQQSGPELVKPGASVKMSCKASGYTFTDYFMKWVKQSHGESLEWIGVINPNNGDIFYNQKFKGKATLTVDKSSSTAFMQLNSLTSEDSAVYSCARGTDRALFAYWGQGTLVAVSA
VL: DVVMTQSPLSLPVTLGQPASISCRSGQSIVHSDGNTYLEWFQQRPGQSPRRLIYKVSNRFSGVPDRFSGSGSGTDFTLKISRVEAEDVGVYYCFQGSHIPWTFGGGTKVEIKR
B9: PR302341-2 (antibody, human IgG1, kappa, V domains shown)
VH: EVQLQQSGPELVKPGASVKMSCKASGYTFTDYFMKWVKQSHGESLEWIGVINPNNGDIFYNQKFKGKATLTVDKSSSTAFMQLNSLTSEDSAVYSCARGTDRALFAYWGQGTLVAVSA
VL: DVVMTQSPLSLPVTLGQPASISCRSGQSIVHSDGNTYLEWYQQRPGQSPRLLIYKVSNRFSGVPDRFSGSGSGTDFTLKISRVEAEDLGVYYCFQGSHIPWTFGGGTKVEIKR
B10: PR302341-4 (antibody, human IgG1, kappa, V domains shown)
VH: EVQLQQSGPELVKPGASVKMSCKASGYTFTDYFMKWVKQSHGESLEWIGVINPNNGDIFYNQKFKGKATLTVDKSSSTAFMQLNSLTSEDSAVYSCARGTDRALFAYWGQGTLVAVSA
VL: DVVMTQTPLSSPVTLGQPASISCRSGQSIVHSDGNTYLEWYQQRPGQPPRLLIYKVSNRFSGVPDRFSGSGAGTDFTLKISRVEAEDLGVYYCFQGSHIPWTFGGGTKVEIKR
B11: PR302341-13 (antibody, human IgG1, kappa, V domains shown)
VH: QVQLVQSGAEVKKPGASVKVSCKASGYTFTDYFMKWVRQAPGQGLEWMGVINPNNGDIFYNQKFKGRVTMTRDTSTSTVYMELSSLRSEDTAVYYCARGTDRALFAYWGQGTLVTVSS
VL: DVLMTQTPLSLPVSLGDQASISCRSGQSIVHSDGNTYLEWYLQRPGQSPRLLIYKVSNRFSGVPDRFSGSGSGTDFTLKISRVGAEDLGIYYCFQGSHIPWTFGGGTKLEVKR
B12: PR302341-7 (antibody, human IgG1, kappa, V domains shown)
VH: QVQLVQSGAEVKKPGASVKVSCKASGYTFTDYFMKWVRQAPGQGLEWMGVINPNNGDIFYNQKFKGRVTMTVDKSTSTAYMELSSLRSEDTAVYYCARGTDRALFAYWGQGTLVTVSS
VL: DVVMTQSPLSLPVTLGQPASISCRSGQSIVHSDGNTYLEWFQQRPGQSPRRLIYKVSNRFSGVPDRFSGSGSGTDFTLKISRVEAEDVGVYYCFQGSHIPWTFGGGTKVEIKR
B13: PR302341-10 (antibody, human IgG1, kappa, V domains shown)
VH: QVQLVQSGAEVKKPGASVKVSCKASGYTFTDYFMKWVRQAPGQGLEWMGVINPNNGDIFYNQKFKGRVTMTVDKSTSTAYMELSSLRSEDTAVYYCARGTDRALFAYWGQGTLVTVSS
VL: DVVMTQTPLSSPVTLGQPASISCRSGQSIVHSDGNTYLEWYQQRPGQPPRLLIYKVSNRFSGVPDRFSGSGAGTDFTLKISRVEAEDLGVYYCFQGSHIPWTFGGGTKVEIKR
B14: PR302341-9 (antibody, human IgG1, kappa, V domains shown)
VH: QVQLVQSGAEVKKPGASVKVSCKASGYTFTDYFMKWVRQAPGQGLEWMGVINPNNGDIFYNQKFKGRVTMTVDKSTSTAYMELSSLRSEDTAVYYCARGTDRALFAYWGQGTLVTVSS
VL: DIVMTQTPLSSPVTLGQPASISCRSGQSIVHSDGNTYLEWLQQRPGQPPRLLIYKVSNRFSGVPDRFSGSGAGTDFTLKISRVEAEDVGVYYCFQGSHIPWTFGGGTKVEIKR
B15: PR302341-11 (antibody, human IgG1, kappa, V domains shown)
VH: QVQLVQSGAEVKKPGASVKVSCKASGYTFTDYFMKWVRQAPGQGLEWMGVINPNNGDIFYNQKFKGRVTMTVDKSTSTAYMELSSLRSEDTAVYYCARGTDRALFAYWGQGTLVTVSS
VL: DIVMTQTPLSLSVTPGQPASISCRSGQSIVHSDGNTYLEWYLQKPGQSPQLLIYKVSNRFSGVPDRFSGSGSGTDFTLKISRVEAEDVGVYYCFQGSHIPWTFGGGTKVEIKR

Molecular target: T1, corticotropin-releasing hormone (CRH) …
Assay: cell-based or functional assay
For B1, the “hCRHR1-Luc 0.5 nM CRH IC50” value was 139 pM and 231 pM.
For B2, the “hCRHR1-Luc 0.5 nM CRH IC50” value was 75 pM.
In the case of B3, the “hCRHR1-Luc 0.5 nM CRH IC50” value is reported as 730 pM.
For B4, the “hCRHR1-Luc 0.5 nM CRH IC50” value was 121 pM.
In the case of B5, the “hCRHR1-Luc 0.5 nM CRH IC50” value is reported as 363 pM.
For B6, the “hCRHR1-Luc 0.5 nM CRH IC50” value was 165 pM.
In the case of B7, the “hCRHR1-Luc 0.5 nM CRH IC50” value is reported as 128 pM.
For B8, the “hCRHR1-Luc 0.5 nM CRH IC50” value was 397 pM.
With B9 the “hCRHR1-Luc 0.5 nM CRH IC50” value was 168 pM.
B10 was tested, and the “hCRHR1-Luc 0.5 nM CRH IC50” value was 107 pM.
In the case of B11, the “hCRHR1-Luc 0.5 nM CRH IC50” value is reported as 124 pM.
For B12, the “hCRHR1-Luc 0.5 nM CRH IC50” value was 230 pM.
For B13, the “hCRHR1-Luc 0.5 nM CRH IC50” value was 110 pM.
With B14 the “hCRHR1-Luc 0.5 nM CRH IC50” value was 234 pM.
B15 was tested, and the “hCRHR1-Luc 0.5 nM CRH IC50” value was 467 pM.
